Experimental data reported in the supplement of paper PMC9233669.
Fewer inactive variants are shown than the library holds.

Tests used:
biotinyl-Trp-oxazolone = assay: self-aminoacylation, catalytic enhancement (BWO) (fold over background); higher = more active; k-Seq, kA / k0A0; sequences stand for … in GGGAAUGGAUCCACAUCUACGAAUUC…UUCACUGCAGACUUGACGAAGCUG
Method in brief: (§1)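 Catalytic enhancement equals the median kA over the uncatalyzed rate, the latter read from the low-activity peak of a bimodal Gaussian fit. Values of kA came from fitting each sequence's fraction reacted to a pseudo-first-order model, with 1000 bootstraps. Reacted RNA was captured with streptavidin and quantified by triplicate qPCR and Illumina sequencing after 90 minutes at room temperature with 2–1250 μM biotinyl-aminoacyl-oxazolone and 0.43 μM mutagenized RNA pools bearing a 21-nt variable region.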

biotinyl-Met-oxazolone = assay: self-aminoacylation, catalytic enhancement (BMO) (fold over background); higher = more active; k-Seq, kA / k0A0; sequences stand for … in GGGAAUGGAUCCACAUCUACGAAUUC…UUCACUGCAGACUUGACGAAGCUG
Method in brief: as §1

biotinyl-Ile-oxazolone = assay: self-aminoacylation, catalytic enhancement (BIO) (fold over background); higher = more active; k-Seq, kA / k0A0; sequences stand for … in GGGAAUGGAUCCACAUCUACGAAUUC…UUCACUGCAGACUUGACGAAGCUG
Method in brief: as §1

biotinyl-Val-oxazolone = assay: self-aminoacylation, catalytic enhancement (BVO) (fold over background); higher = more active; k-Seq, kA / k0A0; sequences stand for … in GGGAAUGGAUCCACAUCUACGAAUUC…UUCACUGCAGACUUGACGAAGCUG
Method in brief: as §1

biotinyl-Leu-oxazolone = assay: self-aminoacylation, catalytic enhancement (BLO) (fold over background); higher = more active; k-Seq, kA / k0A0; sequences stand for … in GGGAAUGGAUCCACAUCUACGAAUUC…UUCACUGCAGACUUGACGAAGCUG
Method in brief: as §1

biotinyl-Phe-oxazolone = assay: self-aminoacylation, catalytic enhancement (BFO) (fold over background); higher = more active; k-Seq, kA / k0A0; sequences stand for … in GGGAAUGGAUCCACAUCUACGAAUUC…UUCACUGCAGACUUGACGAAGCUG
Method in brief: as §1

Sequence	self-aminoacylation (biotinyl-Trp-oxazolone)	self-aminoacylation (biotinyl-Met-oxazolone)	self-aminoacylation (biotinyl-Ile-oxazolone)	self-aminoacylation (biotinyl-Val-oxazolone)	self-aminoacylation (biotinyl-Leu-oxazolone)	self-aminoacylation (biotinyl-Phe-oxazolone)
CUACUUUAAACGAUCGGUCUG [Fam1A.1 aminoacylation ribozyme variant]	0.759	0.885	0.808	0.844	0.863	0.589
AUUCACCUAUGGCAUCGGGUG [Fam2.2 aminoacylation ribozyme variant]	2.25	2.41	1.96	1.94	2.84	11.9
AUUGCCCUUGUCAUCGAGUGA [Fam2.1 aminoacylation ribozyme variant]	8.3	7.03	3.38	3.88	7.02	42.1
AAGUUUGCUAAUCGACGCAAG [Fam3.1 aminoacylation ribozyme variant]	0.72	0.581	0.534	0.547	0.477	0.783
AUUCACCUUGCUCAUCGGGUG [Fam2.2 aminoacylation ribozyme variant]	2.01	1.94	1.84	2	2.63	10.7
UUACUUCAAACAAUCUGUCUG [Fam1A.1 aminoacylation ribozyme variant]	2.09	1.42	1.45	1.35	1.38	3.15
CUACUUCAAAAAAUCGUUCUG [Fam1A.1 aminoacylation ribozyme variant]	0.581	0.564	0.605	0.613	0.57	1.03
AUACACCUAGGUCAUAGGGUG [Fam2.2 aminoacylation ribozyme variant]	2.14	1.23	1.35	1.43	1.36	3.76
AUUACCCUGGUCCUCUAGUGA [Fam2.1 aminoacylation ribozyme variant]	12.3	9.46	4.37	5.33	10.6	79.1
CUACACUUAAAGCAAUCGGUC [Fam1B.1 aminoacylation ribozyme variant]	0.459	0.713	0.786	0.738	0.696	0.694
CUACUUCAAACAAGCGGGCUG [Fam1A.1 aminoacylation ribozyme variant]	1.88	1.38	1.79	1.41	1.38	0.943
CUACUUCAAACAAGCCGUCUG [Fam1A.1 aminoacylation ribozyme variant]	0.926	0.925	0.78	0.746	0.872	0.59
CUAAUUCAACCAAUCGGUCUG [Fam1A.1 aminoacylation ribozyme variant]	1.19	0.63	0.66	0.741	0.676	2.11
AAGUUUCCUAAAAGUCGCAAG [Fam3.1 aminoacylation ribozyme variant]	1.71	1.64	1.7	1.57	2.06	2.23
AUUACCCUUGACAUCGAGUGA [Fam2.1 aminoacylation ribozyme variant]	13.5	10.8	4.31	5.25	11	50.8
ACUACCCUGCUCAUCGAGUGA [Fam2.1 aminoacylation ribozyme variant]	1.93	1.45	1.37	1.85	2.44	2.39
AAGUUUGUUAAUAUUCGCAAG [Fam3.1 aminoacylation ribozyme variant]	1.41	1.15	1.55	1.43	1.45	1.17
AUUCUUCUAGGUCAUCGGGUG [Fam2.2 aminoacylation ribozyme variant]	6.98	7.87	4.52	5.28	9.07	50.3
AUUCAGCCAGGUCAUCGGGUG [Fam2.2 aminoacylation ribozyme variant]	9.91	8.99	5.25	5.4	10.7	59.7
AUUCACCGAGGUGAUCGGGUG [Fam2.2 aminoacylation ribozyme variant]	3.05	4.75	3.8	4.15	6.59	29.6
AUUCACCUAGGUCAGCCGGUG [Fam2.2 aminoacylation ribozyme variant]	6.47	7.35	5.17	5.3	11.3	61.6
UAGUUUGCCAAUAGUCGCAAG [Fam3.1 aminoacylation ribozyme variant]	1.99	1.77	1.61	1.61	1.87	2.96
AGUACCCUGGUCCUCGAGUGA [Fam2.1 aminoacylation ribozyme variant]	4.66	4.14	2.7	2.81	5.58	18.1
AUUCACCUCGGUCAACGGGUG [Fam2.2 aminoacylation ribozyme variant]	3.36	3.98	2.44	2.82	5.39	27.8
AUUGACCUAGGUCUUCGGGUG [Fam2.2 aminoacylation ribozyme variant]	4.79	4.29	3.85	3.97	4.19	19
CUACAUCAAAGAAUCGGUCUG [Fam1A.1 aminoacylation ribozyme variant]	0.67	0.817	0.78	0.68	0.592	0.801

Sequence	self-aminoacylation (biotinyl-Trp-oxazolone)	self-aminoacylation (biotinyl-Met-oxazolone)	self-aminoacylation (biotinyl-Ile-oxazolone)	self-aminoacylation (biotinyl-Val-oxazolone)	self-aminoacylation (biotinyl-Leu-oxazolone)	self-aminoacylation (biotinyl-Phe-oxazolone)
CCACCCUUCAAGAAAUCGGUC [Fam1B.1 aminoacylation ribozyme variant]	6.09	1.16	1.24	1.19	1.26	5.63
AUACACCUUGGUCAUCGGGUG [Fam2.2 aminoacylation ribozyme variant]	4.4	3.63	3.47	2.89	4.72	19.9
AAGUUUUCUAAUAGUCCCAAG [Fam3.1 aminoacylation ribozyme variant]	1.45	0.891	1.02	1.08	0.929	2.7
AAGUUUGCUAAAAGUUGCAAG [Fam3.1 aminoacylation ribozyme variant]	0.711	1.07	0.983	0.781	0.968	1.18
AUUACGCUGUUCAUCGAGUGA [Fam2.1 aminoacylation ribozyme variant]	4.58	3.87	2.4	2.71	3.57	4.19
UUGCUUCAAACAAUCGGUCUG [Fam1A.1 aminoacylation ribozyme variant]	53.4	2.25	2.12	1.91	3.55	147
AUUCACCUAGUUCAUCCGGUG [Fam2.2 aminoacylation ribozyme variant]	3.54	3.23	3.1	2.52	3.89	21.9
CUGCUGCAAACAAUCGGUCUG [Fam1A.1 aminoacylation ribozyme variant]	1.53	0.995	1.05	1.07	1.31	1.81
AUUCACCUGGGUCAUCAGGUG [Fam2.2 aminoacylation ribozyme variant]	1.36	1.48	1.52	1.92	1.67	6.12
CUUCUUCAAAAAAUCGGUCUG [Fam1A.1 aminoacylation ribozyme variant]	5.39	0.902	1	0.851	1.02	6.58
AAGUUUGCAAAUAGUCGCAUG [Fam3.1 aminoacylation ribozyme variant]	1.46	1.07	1.14	0.978	0.874	0.739
AUUACCCUGGUCAUCGCGUGA [Fam2.1 aminoacylation ribozyme variant]	20.1	18.3	8.09	9.74	20.3	139
AUUCCCCUCGGUCAUCGGGUG [Fam2.2 aminoacylation ribozyme variant]	22.6	21.1	14.8	14	30.8	211
AUUCACCUAGGUCCUCGGGUC [Fam2.2 aminoacylation ribozyme variant]	0.77	1.51	1.21	1.34	1.16	4.38
AUUAUCCUGGUCAUCGAGUAA [Fam2.1 aminoacylation ribozyme variant]	1.08	2.03	1.43	1.39	1.85	2.69
ACACACUUCAAGCAAUUGGUC [Fam1B.1 aminoacylation ribozyme variant]	1.29	1.01	1.09	1.17	0.945	1.61
GUUCAACUAGGUCAUCGGGUG [Fam2.2 aminoacylation ribozyme variant]	6.75	5.04	4.28	4.16	6.94	42.6
CUACUUAAAACAAUCGGUCUA [Fam1A.1 aminoacylation ribozyme variant]	0.711	0.729	0.766	0.894	0.602	0.81
AUUACCCUGGACAUCGAGUUA [Fam2.1 aminoacylation ribozyme variant]	0.639	0.682	0.805	0.75	0.772	0.728
AUUACCCAGGUCAUCGAGUGG [Fam2.1 aminoacylation ribozyme variant]	0.735	1.07	1.14	1.22	1.3	0.937
AUUCACCUAGGCCAUCCGGUG [Fam2.2 aminoacylation ribozyme variant]	5.92	5.26	4.25	4.6	5.83	32
AUUACCCUGGUCAAGGAGUGA [Fam2.1 aminoacylation ribozyme variant]	3.32	3.47	1.94	2.04	2.87	3.96
CUUCACCUAGGACAUCGGGUG [Fam2.2 aminoacylation ribozyme variant]	3.31	3.03	2.34	2.68	3.53	14.1
AUUACGCGGGUCAUCGAGUGA [Fam2.1 aminoacylation ribozyme variant]	5.54	5.54	3.23	3.31	4.86	22.7
CCACACUUCAAGCAAUCGCCC [Fam1B.1 aminoacylation ribozyme variant]	1.58	1.33	0.996	2.32	2	0.498
